Measurements as given in a protein production outcome set (Wang et al. 2014).

Assay: label from the status in PepcDB records

Row | Sequence | protein production
1 | MLDRVIYSLIQTENKSVVNELFFRIAEGEDSFAELARKYSQGAEADRGGIIGPVELGSITPNFAQLLYTSQVGVVQPPVAFGNTWVIVRVEKLIPAQLEHHHHHH | failed
2 | MLEAEVVALKDLIEVAGAVVSTLDLDTVLRHILTSAMRFAETPAGSIALYDGYRNDLTLHAHEGLTPEFVKTERWSVQPGGLTEQVLTRGEILFVNDTADTSFFHNPTALNEGIRSLICVPLMMQNRIVGILYLDDFVPRDFDKERMKLLSVLASFAAMAIDNAQLHARTRLMAITDSLTGLYNHRYFQQIFSRELNRAKRYEKPLAIIMLDVDDFKRFNDTYGHPHGDKVLAAMGDFLGEALRSSDFAFRYGGEEFIVLLPETEFDSALQVAERLRELVERRSLDVLKGLAPQGVTVSVGVASFPRDGESRGDMLKRVDDLLYRAKEFGKNRVYSRREDEP | failed
3 | MLEDHHLYKAAIEHSPIGIGLCAPKGRFLDVNRALCALTGHEAQALRARDLFDLCHPDYAARTRERVEALLAGEQDALSLETRFVRPDGSTVWVQADLALARAEAGDGQDGHLIVQVQDVTARRLALESLQASEQRLAYVLDGAGLGTFDWSMRVRHVSFNRRTAEMLGYAHDELSTDPQDWFAMVHPQDAVLSVRRIYRHLRGDADSFEVEQRLRNQEGQWVWMSARGRVTQRDALGIAVRVSGTLQDVTRRRAMLDQAHHLALHDPLTDLPNARLLRDRLFVAIQAARRAGSLVAVVFVDLDRFKPVNDEYGHGVGDLVLKATAMRLRSGLRASDTVARLGGDEFVAVLTHCQTRDDVEQTVERLIEQLQAPFRVEGHVLSMGVSAGVALYPSDGRDAQTLIRCADAAMYEVKRAGGNDFGFHASLNYERLMSMRQRGPDPDGGADGR | failed
4 | MLEGAKFNVLAVGNHHNNDNNYYAFTQEFYQKLNEGSNMSMESMQTSNAGGSVSMSVDNSSVGSSDALIGHPGLKPVRHYSLSVGQSVFRPGRVTHALNDDALAQALMDTRYPTEGLTNYDEWTIDLRKLNMGPAFAQGAFGKLYKGTYNGEDVAIKILERPENSPEKAQFMEQQFQQEVSMLANLKHPNIVRFIGACRKPMVWCIVTEYAKGGSVRQFLTRRQNRAVPLKLAVKQALDVARGMAYVHGRNFIHRDLKSDNLLISADKSIKIADFGVARIEVQTEGMTPETGTYRWMAPEMIQHRAYNQKVDVYSFGIVLWELITGLLPFQNMTAVQAAFAVVNRGVRPTVPNDCLPVLSDIMTRCWDANPEVRPCFVEVVKLLEAAETEIMTTARKARFRCCLSQPMTID | failed
5 | MLEHAAGQPWIYPVLLVFFFIDGFATILPSETAIVGLSALSLHSGEPNLWILGGTALVGAMAGDNMAYMLGRKIGLTRWKWMRRPKVQKMFAWAQYELDKRGAVLIFTARYIPWGRVAVNYVAGQTGFRHRTFFWLDAFACITWVGYSIGIGLLAGQWVHHNPLLGVGIAVAFAVVLGIVVDHALRWWHKYLEKKDVAREAAASSEVKVAEPADLSQKAVAGADLSKPAG | failed
6 | MLEILMSLTAAICWAFNGIAYRKGVKDVSAFTANFHRTLFATVYFLPLALRDFPGVVIDLQTALVLVISAMLSFYIGDLSYFASLKRSPVSIALPASSTYPVYVVLLSTVIYGAELSLNALISAILVFVAVYIIYGSGEKGETSGLFYALLAAFSWALAILTLDFLTDRLPVSIVAFVRLLLCLILLSFTAKKDELSTEIRLFFRSVRGIFLLLGIMLFITAIKVSSSWNVVQPSSTSPVFAAIFGAIFLKERISFRLVAGIFVIILAILLLLLPPLQ | failed
7 | MLEIVAAIFIVLLGSGICSCAEAALFSVPLVKVRQLSQSNNPSAIALQAIRHRMNRPIGTIVVLNNIFNIVGSITIGALATKHLQDAWMGVFSGILTLLIIVFGEIIPKTLGERYATNIALLIAIPVRFLTLIFTPLVWLIEQITNPFTHGKRVPSTNEAEIKFLATLGYKEGVIEGDEEQMIQRVFQLNDLMAVDLMTPRVIITYLLGELTLAECQQDIIQSQHTRILIVDEYIDEVLGIALKQDLLTALIQGEGYKTIAELARPAQFVPEGMRADKLLKQFQEKREHLMVVIDEYGGVAGVITLEDVVEVLTGEIVDETDKNIDLQEIARKKRQALLKQRGVAP | failed
8 | MLEKIFNSLCSLVPKRYNMKEETNIVGIYNEHYLLSEKSNLVGALKLEGISYLSLDDKEIAQKFNERILALNEIVDGVHFKIVVKRRKIFMHHEYTQEEISNPFALEVINLWEQGVEDVYQNFYYLIFETKNDSIKGYLERFKKKITTNELENIQENNRQDEVKYQENYFIGFDNFNLLDKSKILYSIINNVKNMLSGLFVEKIDANSLLNFYAEYINGVPSEYTFARGRLHDGMINSDVHFKKDFFTHIHNGKEIFKRFISIKTYDIDKIVSTALSSVLHLSLEFDVILNIDNIPKAKAEKRIETKRKRANKSIRVEIDELNDMIKTDRVLMQEISLNILVHAKTKTDLDSACIEITNLLKQKGIVSTQESIGMLPMFFSFFPNRNRLNFRKRLLSSQNIASLIILEKQNCGFSRNSWGDRHLTIFRNQDKSPYLFNFHAYEAKRKNDMVSGHTIIFGGTGAGKTTLIEFLITNCFKYEDLSILALDRNNGMRVMTEFLDGQYNDSNDFYINPFSLKDTSANCTFLVSWLAFMLNIDEDTKDEKEKKTLSALSKTIRVCYNNITKQGGAIFKLRDFKDTLEIDYLDSKDILEKESSKDLYKHSTDCLDFAKKLSVIDMDALSSSKKDFNLAVLYLFYKVMNRAKLENKPFYIFIDEAKSVIENPIMLAKIKDTLAQARKLNGVLTLAFQDINQLDGVEGAKSIIENAAQVILYPTNNFEKLESYGILLSPIEKSFLNKTPLNARQVLVKNLLTQSSVFLEINLEKLNSTSKKFLRAYNSSASSVFELETLKKDNPKDYKEIYLTKE | failed
9 | MLEKLLSAIKQKVSNYFLGVLPKSYSMSEENNILGLYDEHFLLTKNENLVGILRLEGVSYTHLSTEQLQDLFTERQMALDSLEKVVARLVVKRRKIDHQQNIQSDSQYLQAILNQFENKEVYENQYFLVLESTHSLHGVLEHKKKSLMHANRENFKDILSYKAHFLQETLKSLEIQLKNYAPKLLSSKEVLNFYAEYINGFDLPLKPLVGGYLSDSYIASSITFEKDYFIQESFNQKTYNRLIGIKAYESERITSIAIGALLYQETPLDIIFSIEPMSVHKTLSFLKERAKFSMSNLVKNELLEYQELVKTKRLSMQKFALNILIKAPSLENLDAQTSLVLGLLFKENLVGVIETFGLKGGYFSFFPERIHLNHRLRFLTSKALACLMVFERQNLGFKANSWGNSPLSVFKNLDYSPFLFNFHNQEVSHKNAKEIARVNGHTLIIGATGSGKSTLISFLMMSALKYQNMRLLAFDRMQGLYSFTKFFKGHYHDGQSFSINPFCLEPNLQNLEFLQSFFLSMFDLAPSRDKEALEDMNAISSAIKSLYETLYPKAFSLLDFKETLKRTSSNQLGLSLEPYLNNPLFNALNDAFNSNAFLNVINLDTITQNPKDLGLLAYYLFYKILEESRKNDSGFLVFLDEFKSYVENDLLNTKINALITQARKANGVVVLALQDIYQLSGVKNAHSFLSNMGTLILYPQKNARELKHNFNVPLSETEISFLENTPLYARQVLVKNLGNGSSNMIDVSLESLGRYLKIFNSDSSHVSKVKALQKDYPTEWREKLLRSLEHHHHHH | failed
10 | MLEKNKPENHATDKHGLLSAPIPETLRKMTVPMTMGMIAILMFNLVDTFFISLLGTHALAAISYTFPVTFAVNCITMGIGMGLSTNIGRLLGQGHAPQAARFTTHGLLLAVLLVAIASSIGFATIAPLFRFLGATDDLIPLIEQYMQVWYLTIPLLVIPMAGNSAIRATGDTKTPAKIMMLAGLINGMLDPLLIFGYGPFPELGIQGAAIASAFSWLGALCGSFYVLVKREKLLAQPQWASLKQDWQQTLKIGTPAALSNAMNPLSGAILMMLLSSHGTAAVAAYGAAQRIESILILVLMSLTSALTPFMAQNLGAKNPQRAFSGLFLSMRFAVVFQGFIFLMMVPLSIPLAALFSQEETVKNLLWHYLLVVPFSYGFQGIVMMLVSGLNAMHKPLRAFQWSFMRLFVFTLPAAWVGSQVYSIEGLFIGIALGNTLGGLLGYMFALRERKLTLIEQNSAS | failed
11 | MLELFLKSFLTLFVVMDPVGLVPVFVALAGDRPHRTQVLIARKAVLVAGGLLTFFYFFGRELLGHLGISLEALRIAGGVLLFRIATEMVFAHHERETEEERDEALSRADISVFPLAIPLIAGPGALASVLVLGAEAKGVPYGFAVVLFTAYLVLFLAYLFLRGATAVRRALGRTGVNVVTRVLGLLLAALAVQYVADGVRGLL | failed
12 | MLETLMYGAISALVFGTVLPLLYRSKNIRKASSGLSLLSSILLLGFAGIILYTRTEPVFPVTGFLPGAGFTLSADRLAAGFILLIGAVVPGVSIYSVEYVEHAKSEARKSLQASLTNLFILAMLMVILAGNMVSFLVFWEIMSLSSLLLVLHDYSSEENKKAGFFYFVMTNISTAFLFVGFISLFRLTGSADFGPLEYPAADLALPFIFLFIGFGVKAGLVPFHKWLPYAHPAAPSSVSALMSGVMLKVAVYGFLRFLLSVSAPELWWGVLILTAGSISALFGVIYALKENDIKRMLAYSSIENIGIIFTGIGLYAVFKVEGLESLALLSLVGACFHAFNHAVFKSLLFLCAGSVVHATGTRKIEAFGGLVKSMPVTSALFLIGSVSIAAMPPTNGFAGELLLYQAFFQSFAVTDPLLNIFLIIALSSFALTGALAAALFVKLFGITCLAIPRSEKSRLAEEVQKPMLVGPAVPAAFCILGGLFSKQLLSLAGWKIDFPDLLLLGILLGLIYTALFVIIRSKETGPARISETWGCGIPALAPYMEYSSAGFSEPLVMIFKSIYRTKIVNRPEYFDEKESLFKNGKVEIRLLRFFEEYLYIPPARAIDIFSKYVSKLQNGKLDSYVLYAFLAVIVLIIATGGFV | failed
13 | MLEVHRTHRAKILNYSQVEDSLNRHGWSASKLWNVANYHSRQVWEETREIPGHEELKNELKGHDKYKGLHSQSSQRVLEELAEAFNSWYSSDDERDNPPGYRKQNYYDQQGRRVHEEHPLSTVTWKQNGIRHDTKNNRVRLSKGANHKEHPKAWEYILVEYETRPGVEVENLQQVRAVYDQTKERWELHLVCKEEIETPDAPGTETAGIDLGISNFAAVAYSTEDADLYPGNRLKQDGYYFPKEIANCDDSSGDRATRLHHKWSERRTHFFHSLAKHIVEKCIERSVGRINVGDLEGIREDENAKSKNWGRHGNLDLHGWAFDRFTSILEYKAKVEGIEVMEVSERDTSKTCCVCGREDDSQRVERGLYVCESCDAAFNADVNGAENIRLDIDEESNSESTGQLSGDRSTGWLAQPGVYLYDLSCGFQPQREVVDSKP | failed
14 | MLFSIQTCPCQINPALNAVSTPLLYQDCCQPYHDGLYNQEVEDSDAIRADTAEHLMRTRYSAFVLVKPEYIVKTTLPAQQDLLDIKAIENWAKETDWAGLEVVAHTPKLSKRHAQVEFKAYFKTPDGLQAHHELSTFVKIKNKANSDASWYFLDPTVSMSVTQKQPCICGSGEKFKRCCGMYI | not failed
15 | MLFSIRNFNQGVIMAGWFELSKSSDNQFRFVLKAGNGETILTSELYTSKASAEKGIASVRSNSPQEERYEKKTASNGKFYFNLKAANHQIIGSSQMYATAQSRETGIASVKANGTSQTVKDNT | failed
16 | MLFSLKYLGMTLVEQPKGEELSAAAIKRIVATAKASGKKLQKVTLKVSPRGIILTDNLTNQLIENVSIYRISYCTADKMHDKVFAYIAQSQHNQSLECHAFLCTKRKMAQAVTLTVAQAFKVAFEFWQVSKEEKEKRDKASQEGGDVLGARQDCTPPLKSLVATGNLLDLEETAKAPLSTVSANTTNMDEVPRPQALSGSSVVWELDDGLDEAFSRLAQSRTNPQVLDTGLTAQDMHYAQCLSPVDWDKPDSSGTEQDDLFSF | failed
17 | MLFTPEGTPMARRLEDARILMYSHDTFGLGHLRRCRAIAHALVEDYRGLNILIISGATIAGAFDYRARVDFVKIPSVIKLRNGEYTSLASHIDLHETLKMRESSIRHTAETFQPDIFIVDKEPMGLKGEVEDTLAYLKARGTVLVLGLREIMDAPHLLDAEWKRNGIMQKIDQYYDSVWVYGPPDFYDPLIGLDVPVSLRRKMDFVGFLQRSVSKGKTSIHARKDNYLLVTTGGGGDGSDLVHDVMNAYEADPTLTQKALVVLGPYMPAAERAKLVQKGEAIPYIEVIEFDNHMEELIDGATGVVAMGGYNTYCEILSFDKPALIVPRVKPREEQLLRAKRASELGLVDMLLPEQSVDPAIMAAALKRLPSRLPPSKSGSNMHLEGLDHISQTVGRWLDGRATHLAVVGAE | failed
